Reference: article PMC10449631 (Nature Chemical Biology, 2023)
pKi: −log10 of the molar value. Where “and” joins values, the source holds several entries; their conditions need not be identical. Identical values can stand only once. Positions of bridges follow the written chain, without caps; N, C: chain ends. Residues, ends and D or L forms follow the SMILES beside them. No end group written: not given here.

Legend:
[1] = in vitro; type: in vitro ADME, Pseudomonas aeruginosa; conditions: cells or culture medium; after 48 h growth; read-out: peptide remaining in solution
Description: Supplementary Figure 19. Stability of cyclic-ERWGHDFIK
The stability of cyclic-ERWGHDFIK was tested by incubating in LB media +/- inoculation with PA14 Pseudomonas aeruginosa. Samples were taken at set timepoints over a 48 hour time period, quenched and analysed by LC-MS. % of cyclic-ERWGHDFIK remaining was calculated by comparing integrated peak areas to the 0 time point. n=1 […]
(1 picture or pasted object on this page, not shown here)

[2] = target: T1, PaAP_T (P. aeruginosa aminopeptidase, C-terminal truncated) (Pseudomonas aeruginosa, UniProt Q02PA2); experiment: Inhibition of PaAP_T in the Leu-pNA aminopeptidase assay (KI, IC50); type: biochemical
T1 construct: PaAP (WT, residues 27–536); His6 (TEV cleavable) (N, cleaved yes); made in house; host or cells: E. coli SHuffle T7
Description: (§1) Aminopeptidase activity was determined spectrophotometrically primarily using amino Leu-pNA. Other commercially available pNA substrates (isoleucine, methionine, alanine, valine, proline, arginine, lysine and phenylalanine) were also assayed. Leu-pNA was incubated with enzyme (100 nM) in assay buffer (50 mM Tris, pH 8.5, 200 mM NaCl) at 25 °C. A pNA release caused an absorbance increase at 405 nm, monitored using a BMG Labtech plate reader. […] Data were plotted in GraphPad Prism (version 9) and the Michalis Menten equation was used for fitting.
(§2) Inhibition assays were carried out with the following peptides: linear-ERWGHDFIK (PaAP C-terminal residues), cyclic-ERWGHDFIK, N-acetylated and C-amidated ERWGHDFIK. IC50 values were determined by varying peptide concentration at a fixed substrate concentration (fixed at KM, (S) = 2 mM, PaAP concentration was 100 nM). […] KI values were determined by fitting the data to equation (1) (Morrison’s equation):1 v=1−Et+I+KI−Et+I+KI^2−4EtIKI/2Et where v is the velocity, Et is the total enzyme concentration, I is the concentration of inhibitor and KI is the equilibrium dissociation constant for the inhibitor. IC50 values increased when measured at increasing S, consistent with competitive inhibition.

[3] = system: PaAP; experiment: PaAP in reaction buffer (50 mM Tris, pH 8.5, 100 mM NaCl); conditions: P. aeruginosa, room temperature, up to overnight
[4] = target: T2, PaAP_T (P. aeruginosa aminopeptidase, C-terminal truncated) (Pseudomonas aeruginosa, UniProt Q02PA2); experiment: Inhibition of PaAP_T in the Leu-pNA aminopeptidase assay (KI, IC50); type: biochemical; conditions: for IC50 plot data (PaAP_T activity at given peptide concentration): (S) = 2 mM, PaAP 100 nM, listed as ERWGHDFIK-NH3
T2 construct: PaAP (WT, residues 27–536); His6 (TEV cleavable) (N, cleaved yes); made in house; host or cells: E. coli SHuffle T7
T2 sequence (Q02PA2 whole entry, looked up): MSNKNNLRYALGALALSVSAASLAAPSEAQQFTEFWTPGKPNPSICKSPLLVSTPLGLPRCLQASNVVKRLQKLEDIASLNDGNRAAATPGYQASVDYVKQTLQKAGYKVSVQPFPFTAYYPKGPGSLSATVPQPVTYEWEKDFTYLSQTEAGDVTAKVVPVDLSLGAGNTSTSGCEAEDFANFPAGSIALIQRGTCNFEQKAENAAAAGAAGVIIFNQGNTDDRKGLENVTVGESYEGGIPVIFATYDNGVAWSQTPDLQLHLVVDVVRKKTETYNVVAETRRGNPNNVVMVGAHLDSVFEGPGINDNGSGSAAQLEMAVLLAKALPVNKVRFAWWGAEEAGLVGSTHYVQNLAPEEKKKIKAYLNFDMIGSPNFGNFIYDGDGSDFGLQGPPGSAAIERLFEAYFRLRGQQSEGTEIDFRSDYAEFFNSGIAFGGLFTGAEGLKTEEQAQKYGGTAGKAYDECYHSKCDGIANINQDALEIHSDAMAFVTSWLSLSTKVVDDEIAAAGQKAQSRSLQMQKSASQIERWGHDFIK
Description: as §1, §2

[5] = target: T3, PaAP (Pseudomonas aeruginosa, UniProt Q02PA2, A513L/Q514V/S515P); experiment: Peptide digestion assay (overnight and time course, LC-MS/MALDI); type: biochemical; conditions: for P0 (parent peptide, LC–MS signal): 500 μM peptide, 1 μM PaAP_T, listed as ERWGHDFIK-NH3
T3 construct: PaAP (WT, residues 27–536); His6 (TEV cleavable) (N, cleaved yes); made in house; host or cells: E. coli SHuffle T7
Description: A variety of peptides of varying lengths and compositions were incubated with PaAP at room temperature. Assays were performed by incubating (overnight at room temperature) 500 μM of substrate (peptides) with 1 μM enzyme (PaAP) in reaction buffer (50 mM Tris, pH 8.5, 100 mM NaCl). The reactions were quenched by heating to 100 °C for 10 min followed by centrifugation at 17,000g in a benchtop centrifuge to remove precipitate. Supernatant was collected and samples were analyzed by LC–MS. Initial trial assays were carried out in the presence and absence (control) of enzyme to determine if the substrate was degraded (single or triplicate experiments). Time-course assays were performed on selected peptide substrates in triplicate. A 300 μl reaction (including 500 μM of substrate) was initiated by the addition of 1 μM enzyme. The reaction was incubated at room temperature. The reaction was quenched at set timepoints by the removal of 30 μl aliquots, which were immediately heated to 100 °C for 10 min. The samples were analyzed by LC–MS using a Xevo Q-ToF (Waters) as described below, searching for masses of all peptide breakdown products.
Peptide degradation time courses were fitted to exponential equations as follows:
P0 peptide consumption was fitted to a single exponential equation (equation (2)) with the format2 yt=y0−Plateaue^−kt+Plateau
Time courses for the formation and decay of peptide intermediates were fitted to double exponential equations (equation (3)) and single exponential equations, followed by a linear phase (4)3 yt=y0−Plateau1e^−k1t+y0−Plateau2e^−k2t+Plateau 4 yt=y0−Plateaue^−kt+vt+Plateau where y(t) is the product formed at time t, y0 − Plateau is the amplitude of the exponential phase, k is the observed rate constant for the exponential phase, y0 is the value of y at time 0, Plateau is the value of y after exponential phase, C is the offset and v is the slope of the linear phase.
Peptide samples incubated in the presence and absence of PaAP were initially analyzed by MALDI. The peptide sample (0.5 µl at 10 µM) was spotted along with matrix (0.5 µl 10 mg ml^−1 α-cyano-4-hydroxycinnamic acid in ACN/0.1% TFA (50/50, vol/vol)) on a stainless steel MALDI plate and left to dry. The sample plate was loaded into a Sciex 4800 MALDI mass spectrometer. The laser voltage was adjusted to give a good signal to noise strength, and 50 shots were acquired in a random pattern across the spot and spectra combined. The spectra were externally calibrated with Sciex Pepcal mix (range: 500–4,000 m/z).

[6] = system: PaAP_T; experiment: PaAP_T in reaction buffer (50 mM Tris, pH 8.5, 100 mM NaCl), time course; conditions: P. aeruginosa, room temperature, up to 1220 minutes
[7] = system: PaAP_T; experiment: reaction buffer (50 mM Tris, pH 8.5, 100 mM NaCl), time-course assay; conditions: Pseudomonas aeruginosa (recombinant enzyme), room temperature, up to 1220 min
[8] = target: T4, PaAP_T (Pseudomonas aeruginosa, UniProt Q02PA2); experiment: Enzymatic assay with amino acid-pNA substrates (kcat, KM); type: biochemical; conditions: amino acid–pNA substrate
T4 construct: PaAP (WT, residues 27–536); His6 (TEV cleavable) (N, cleaved yes); made in house; host or cells: E. coli SHuffle T7
Description: as §1

[9] = system: PaAP; set-up: method as in PMID 30894675; conditions: impacted the activity of PaAP in vivo; cited from earlier work

T3 sequence (Q02PA2 37-516 A513L/Q514V/S515P): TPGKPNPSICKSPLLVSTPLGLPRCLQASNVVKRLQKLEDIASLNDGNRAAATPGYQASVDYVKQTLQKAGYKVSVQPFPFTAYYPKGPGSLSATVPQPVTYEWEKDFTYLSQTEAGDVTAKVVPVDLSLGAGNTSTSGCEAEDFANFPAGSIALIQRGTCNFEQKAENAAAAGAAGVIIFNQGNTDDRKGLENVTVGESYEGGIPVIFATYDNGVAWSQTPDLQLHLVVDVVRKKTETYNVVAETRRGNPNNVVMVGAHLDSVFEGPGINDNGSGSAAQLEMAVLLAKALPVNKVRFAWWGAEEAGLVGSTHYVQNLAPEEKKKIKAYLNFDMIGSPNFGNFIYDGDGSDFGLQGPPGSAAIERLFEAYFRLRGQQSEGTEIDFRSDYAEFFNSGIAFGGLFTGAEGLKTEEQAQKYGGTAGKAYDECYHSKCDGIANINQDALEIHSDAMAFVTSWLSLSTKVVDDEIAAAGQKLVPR

For CC[C@H](C)[C@@H]1NC(=O)[C@H](Cc2ccccc2)NC(=O)[C@H](CC(=O)O)NC(=O)[C@H](Cc2c[nH]cn2)NC(=O)CNC(=O)[C@H](Cc2c[nH]c3ccccc23)NC(=O)[C@H](CCCNC(=N)N)NC(=O)[C@@H](N)CCC(=O)NCCCC[C@@H](C(=O)O)NC1=O [cyclic-ERWGHDFIK] (H-ERWGHDFIK-OH; lactam 1-9), the remaining at 48 h [1] was > 60% and the pKi [2] was 7.64.

With Ac-ERWGHDFIK the not cleaved [3] was “not a substrate”.

In the case of “cyclic-ERWGHDFIK cyclized by isopeptide bond”, the not cleaved [3] was “not degraded when incubated overnight with PaAP”.

In the case of “ERWGHDFIK-NH2: ERWGHDFIK peptide harboring a C-terminal amide”, the “IC50 relative to unmodified linear ERWGHDFIK” value ([4]; Leu-pNA assay) was “increased IC50 value”, the “inhibition of PaAP_T” value ([4]; Leu-pNA assay) was “very poor inhibitors” and the “IC50 plot data (PaAP_T activity at given peptide concentration)” value (from here on “IC50 plot data”) ([4]; log(I) 0) was 100.509 and 101.823 and 100.804. For the same molecule, the “IC50 plot data” value ([4]; log(I) 0.39794) was 100.885 and 102.922 and 101.877, the “IC50 plot data” value ([4]; log(I) 0.69897) was 100.054 and 101.233 and 108.07 and the “IC50 plot data” value ([4]; log(I) 1) was 99.2493 and 105.174 and 106.059. The “IC50 plot data” value ([4]; log(I) 1.39794) was 96.4075 and 101.34 and 94.2091, the “IC50 plot data” value ([4]; log(I) 1.69897) was 90.5898 and 93.2172 and 95.2547 and the “IC50 plot data” value ([4]; log(I) 2) was 71.9303 and 76.8365 and 72.5737. The “IC50 plot data” value ([4]; log(I) 2.39794) was 36.7024 and 39.9464 and 37.7748, the “IC50 plot data” value ([4]; log(I) -0.30103) was 101.126 and 105.737 and 97.1046 and the “IC50 plot data” value ([4]; log(I) -0.60206) was 99.866 and 101.85 and 100.456. For the same molecule, the “IC50 plot data” value ([4]; log(I) -1) was 101.475 and 103.619 and 100.617, the “IC50 plot data” value ([4]; log(I) -1.30103) was 101.126 and 99.5174 and 100.483 and the “substrate of / degraded by PaAP (words)” value ([5]; incubated with PaAP overnight, LC–MS or MALDI, listed as ERWEGHDFIK-NH3) was “good substrate”. The “P0 (parent peptide, LC–MS signal)” value ([5]; time 0 minutes) was 747781 and 703178 and 683749, the “P0 (parent peptide, LC–MS signal)” value ([5]; time 5 minutes) was 717720 and 659374 and 657747 and the “P0 (parent peptide, LC–MS signal)” value ([5]; time 10 minutes) was 666366 and 611681 and 573626. The “P0 (parent peptide, LC–MS signal)” value ([5]; time 30 minutes) was 456167 and 415831 and 416655, the “P0 (parent peptide, LC–MS signal)” value ([5]; time 60 minutes) was 206401 and 213826 and 168991 and the “P0 (parent peptide, LC–MS signal)” value ([5]; time 90 minutes) was 48119.3 and 55308.2 and 38290.8. The “P0 (parent peptide, LC–MS signal)” value ([5]; time 120 minutes) was 7764.71 and 8223.82 and 5808.71, the “P0 (parent peptide, LC–MS signal)” value ([5]; time 180 minutes) was 323.386 and 411.426 and 320.297 and the “relative rate of degradation by PaAP” value ([5]; time-course assay, LC–MS) was “processed at a faster rate than unmodified ERWGHDFIK”.

In the case of HCATIPAFDG, the fragment found [6] was “products from P-5, major” and the fragment found [7] was “products from P-5, major”.

For NCCCC[C@H](N)C(=O)Nc1ccc([N+](=O)[O-])cc1 [Lys-pNA], the kcat [8] was 248 min⁻¹.

In the case of CC(C)[C@H](N)C(=O)Nc1ccc([N+](=O)[O-])cc1 [Val-pNA], the kcat [8] was 6.9 min⁻¹.

CC(C)C[C@H](N)C(=O)Nc1ccc([N+](=O)[O-])cc1 [Leu-pNA] showed a kcat [8] of 689 min⁻¹.

For O=C(O)CCNC(=O)c1ccc(/N=N/c2ccc(O)c(C(=O)O)c2)cc1 [Balsalazide], the “effect on biofilm” value [9] is given as “anti-biofilm phenotype”.
